# According to patent publication US20250388640A1 (SYNTHEKINE, published 2025):
# What was measured:
# [1] = target: T1, hIL-12 receptor signaling complex (hIL-12Rβ1 and hIL-12Rβ2) (human, UniProt P42701 24-662; Q99665 24-862); assay: cell-based or functional assay
# [2] = target: T1, hIL-12 receptor signaling complex …; assay: cell-based or functional assay; remark: listed apart in the source
# T1 sequence (Q99665 24-862, chain 2 of 2, other chains not shown): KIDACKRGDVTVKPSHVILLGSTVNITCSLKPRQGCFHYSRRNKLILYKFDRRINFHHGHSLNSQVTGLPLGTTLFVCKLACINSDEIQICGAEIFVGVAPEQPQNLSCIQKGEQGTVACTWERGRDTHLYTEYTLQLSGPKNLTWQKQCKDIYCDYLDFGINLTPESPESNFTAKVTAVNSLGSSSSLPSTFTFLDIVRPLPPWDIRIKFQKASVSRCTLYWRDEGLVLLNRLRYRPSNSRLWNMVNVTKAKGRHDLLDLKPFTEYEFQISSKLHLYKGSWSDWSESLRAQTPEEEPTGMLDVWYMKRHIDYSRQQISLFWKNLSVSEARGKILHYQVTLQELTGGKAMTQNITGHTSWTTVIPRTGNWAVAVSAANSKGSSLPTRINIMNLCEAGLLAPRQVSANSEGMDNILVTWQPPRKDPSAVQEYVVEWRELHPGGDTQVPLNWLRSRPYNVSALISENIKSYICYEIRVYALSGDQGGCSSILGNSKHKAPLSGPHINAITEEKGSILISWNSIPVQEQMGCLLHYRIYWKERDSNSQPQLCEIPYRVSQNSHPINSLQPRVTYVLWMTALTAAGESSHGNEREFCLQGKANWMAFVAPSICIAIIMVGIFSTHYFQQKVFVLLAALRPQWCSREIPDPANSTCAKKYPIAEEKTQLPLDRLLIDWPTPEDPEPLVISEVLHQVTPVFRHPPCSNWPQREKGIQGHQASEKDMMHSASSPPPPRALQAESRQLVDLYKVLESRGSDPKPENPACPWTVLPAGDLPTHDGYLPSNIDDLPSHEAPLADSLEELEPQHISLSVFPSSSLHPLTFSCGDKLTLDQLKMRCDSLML
"IFNy [gMFI] EC50, CD8+ T Cells [1]","IFNy [gMFI] EC50, CD56hi NK Cells [1]","IFNy [gMFI] Emax, CD8+ T Cells [1]","IFNy [gMFI] Emax, CD56hi NK Cells [1]","IFNy [%+] EC50, CD8+ T Cells [2]","IFNy [%+] EC50, CD56hi NK Cells [2]","IFNy [%+] Emax, CD8+ T Cells [2]","IFNy [%+] Emax, CD56hi NK Cells [2]",Binder
0.35 nM,0.75 nM,16300 gMFI,156000 gMFI,0.178 nM,0.036 nM,81.6 %+,94 %+,"human IL12 mutein, hIL-12p40 E81R, F82A with hIL-12p35-8X His (ligand) chain 1: IWELKKDVYVVELDWYPDAPGEMVVLTCDTPEEDGITWTLDQSSEVLGSGKTLTIQVKRAGDAGQYTCHKGGEVLSHSLLLLHKKEDGIWSTDILKDQKEPKNKTFLRCEAKNYSGRFTCWWLTTISTDLTFSVKSSRGSSDPQGVTCGAATLSAERVRGDNKEYEYSVECQEDSACPAAEESLPIEVMVDAVHKLKYENYTSSFFIRDIIKPDPPKNLQLKPLKNSRQVEVSWEYPDTWSTPHSYFSLTFCVQVQGKSKREKKDRVFTDKTSATVICRKNASISVRAQDRYYSSSWSEWASVPCS chain 2: RNLPVATPDPGMFPCLHHSQNLLRAVSNMLQKARQTLEFYPCTSEEIDHEDITKDKTSTVEACLPLELTKNESCLNSRETSFITNGSCLASRKTSFMMALCLSSIYEDLKMYQVEFKTMNAKLLMDPKRQIFLDQNMLAVIDELMQALNFNSETVPQKSSLEEPDFYKTKIKLCILLHAFRIRAVTIDRVMSYLNASGSHHHHHHHH"
0.38 nM,0.5 nM,10600 gMFI,194000 gMFI,0.226 nM,0.026 nM,67.4 %+,94.6 %+,"human IL12 mutein, hIL-12p40 E81V, F82A with hIL-12p35-8X His (ligand) chain 1: IWELKKDVYVVELDWYPDAPGEMVVLTCDTPEEDGITWTLDQSSEVLGSGKTLTIQVKVAGDAGQYTCHKGGEVLSHSLLLLHKKEDGIWSTDILKDQKEPKNKTFLRCEAKNYSGRFTCWWLTTISTDLTFSVKSSRGSSDPQGVTCGAATLSAERVRGDNKEYEYSVECQEDSACPAAEESLPIEVMVDAVHKLKYENYTSSFFIRDIIKPDPPKNLQLKPLKNSRQVEVSWEYPDTWSTPHSYFSLTFCVQVQGKSKREKKDRVFTDKTSATVICRKNASISVRAQDRYYSSSWSEWASVPCS chain 2: RNLPVATPDPGMFPCLHHSQNLLRAVSNMLQKARQTLEFYPCTSEEIDHEDITKDKTSTVEACLPLELTKNESCLNSRETSFITNGSCLASRKTSFMMALCLSSIYEDLKMYQVEFKTMNAKLLMDPKRQIFLDQNMLAVIDELMQALNFNSETVPQKSSLEEPDFYKTKIKLCILLHAFRIRAVTIDRVMSYLNASGSHHHHHHHH"
0.39 nM,0.47 nM,11500 gMFI,223000 gMFI,0.185 nM,0.003 nM,68 %+,94.8 %+,"human IL12 mutein, hIL-12p40 E81L, F82A with hIL-12p35-8X His (ligand) chain 1: IWELKKDVYVVELDWYPDAPGEMVVLTCDTPEEDGITWTLDQSSEVLGSGKTLTIQVKLAGDAGQYTCHKGGEVLSHSLLLLHKKEDGIWSTDILKDQKEPKNKTFLRCEAKNYSGRFTCWWLTTISTDLTFSVKSSRGSSDPQGVTCGAATLSAERVRGDNKEYEYSVECQEDSACPAAEESLPIEVMVDAVHKLKYENYTSSFFIRDIIKPDPPKNLQLKPLKNSRQVEVSWEYPDTWSTPHSYFSLTFCVQVQGKSKREKKDRVFTDKTSATVICRKNASISVRAQDRYYSSSWSEWASVPCS chain 2: RNLPVATPDPGMFPCLHHSQNLLRAVSNMLQKARQTLEFYPCTSEEIDHEDITKDKTSTVEACLPLELTKNESCLNSRETSFITNGSCLASRKTSFMMALCLSSIYEDLKMYQVEFKTMNAKLLMDPKRQIFLDQNMLAVIDELMQALNFNSETVPQKSSLEEPDFYKTKIKLCILLHAFRIRAVTIDRVMSYLNASGSHHHHHHHH"
